Data published in IntAct's records for PubMed 24282027.

Tests used:
mfn1_mouse Mfn1 = mfn1_mouse Mfn1 (UniProt Q811U4)
dyn1_human DNM1 = dyn1_human DNM1 (UniProt Q05193)
UniProt Q05193, sequence (Q05193 whole entry): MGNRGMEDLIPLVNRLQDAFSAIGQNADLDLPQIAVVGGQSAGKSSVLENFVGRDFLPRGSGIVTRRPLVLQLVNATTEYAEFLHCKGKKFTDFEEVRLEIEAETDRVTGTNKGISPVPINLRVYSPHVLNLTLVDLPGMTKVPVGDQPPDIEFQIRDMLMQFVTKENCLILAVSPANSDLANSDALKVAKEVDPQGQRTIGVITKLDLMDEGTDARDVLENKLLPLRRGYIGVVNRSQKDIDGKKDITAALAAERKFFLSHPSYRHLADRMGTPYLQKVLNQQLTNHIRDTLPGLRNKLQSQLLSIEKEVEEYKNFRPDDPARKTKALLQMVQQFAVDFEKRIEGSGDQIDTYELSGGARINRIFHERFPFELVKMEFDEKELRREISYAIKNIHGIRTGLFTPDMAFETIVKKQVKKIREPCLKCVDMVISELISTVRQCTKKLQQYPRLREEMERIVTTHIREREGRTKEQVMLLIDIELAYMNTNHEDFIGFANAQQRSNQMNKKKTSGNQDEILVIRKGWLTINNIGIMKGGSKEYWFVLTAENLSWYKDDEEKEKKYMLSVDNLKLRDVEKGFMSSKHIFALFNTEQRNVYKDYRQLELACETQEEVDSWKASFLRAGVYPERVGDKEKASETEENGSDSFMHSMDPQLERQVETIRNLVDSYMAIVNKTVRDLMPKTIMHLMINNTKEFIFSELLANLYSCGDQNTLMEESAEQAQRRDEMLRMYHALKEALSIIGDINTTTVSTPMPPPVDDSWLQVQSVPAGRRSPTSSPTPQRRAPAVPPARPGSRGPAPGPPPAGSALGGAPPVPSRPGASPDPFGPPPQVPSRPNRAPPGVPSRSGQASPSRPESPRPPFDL

UniProt Q811U4, sequence (Q811U4 whole entry): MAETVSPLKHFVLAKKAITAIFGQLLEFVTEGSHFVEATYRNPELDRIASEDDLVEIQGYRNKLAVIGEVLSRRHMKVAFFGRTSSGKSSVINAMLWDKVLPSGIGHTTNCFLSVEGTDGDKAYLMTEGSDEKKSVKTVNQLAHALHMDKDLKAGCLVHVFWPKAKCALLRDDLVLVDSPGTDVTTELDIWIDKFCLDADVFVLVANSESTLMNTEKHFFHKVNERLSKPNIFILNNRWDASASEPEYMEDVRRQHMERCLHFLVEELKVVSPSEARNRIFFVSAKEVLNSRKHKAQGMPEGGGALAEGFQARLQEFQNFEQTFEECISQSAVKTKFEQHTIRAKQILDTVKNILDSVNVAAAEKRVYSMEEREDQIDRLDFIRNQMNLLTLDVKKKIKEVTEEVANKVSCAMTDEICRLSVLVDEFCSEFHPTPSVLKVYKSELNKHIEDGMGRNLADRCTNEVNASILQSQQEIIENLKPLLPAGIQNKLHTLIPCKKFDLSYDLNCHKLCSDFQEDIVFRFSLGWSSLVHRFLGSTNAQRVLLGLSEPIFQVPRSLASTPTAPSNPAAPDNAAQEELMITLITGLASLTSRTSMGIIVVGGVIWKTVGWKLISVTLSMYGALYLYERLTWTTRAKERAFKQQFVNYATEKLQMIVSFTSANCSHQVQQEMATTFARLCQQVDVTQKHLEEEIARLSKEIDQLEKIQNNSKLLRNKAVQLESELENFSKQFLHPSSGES

effect of a mutation on the interaction (mfn1_mouse Mfn1): increasing interaction
effect of a mutation on the interaction (dyn1_human DNM1): increasing interaction
Substance: Leucine-rich repeat serine/threonine-protein kinase 2 (Homo sapiens), Q5S007 G2019S
